For orientation: Kd means the constant that tells how readily two partners part at equilibrium. For orientation: stoichiometry N means a count of units in the complex or per binding partner.

For one assay, the target named is ERK2 (Rattus norvegicus) (UniProt P63086). The settings on record: cited from earlier work.
For assay [1], the target named is activated His6-tagged ERK2 (cleavable His6-tag construct, tag not cleaved) (Rattus norvegicus) (UniProt P63086). Nature of the assay: SEC-MALS. On the technique in general: Size exclusion chromatography separates by hydrodynamic size, large species first.

Turning to ERK2 (from UniProt P63086), the equilibrium dissociation constant (Kd) with ERK2 (Rattus norvegicus) was 7 nM.
In the case of “activated His6-tagged ERK2 (cleavable His6-tag construct, tag not cleaved) (from UniProt P63086 1-358) (enzyme)”, in assay [1], the percent dimer was 30% and the stoichiometry N amounted to 2.

Source of the values: publication PMC3401516.
